# Test results taken from US20250339531A1 (FRED HUTCHINSON CANCER CENTER, published 2025).
# B1: i3XFLAG-NLS-CTDaa154-424 (other)
# chain: MDYKDHDGDYKDHDIDYKDDDDKPPKRMRREPKKKRKVGRAPAQAGGLCSAAPGGGHPAPSWVAFAHTGAWGTGLPAPHVPCAPGALPQGAFVSQAARAAPALQPSQAAPAEGISQPAPARGDFAYAAPAPPDGALSHPQAPRWPPHPGKSREDRDPQRDGLPGPCAVAQPGPAQAGPQGQGVLAPPTSQGSPWWGWGRGPQVAGAAWEPQAGAAPPPQPAPPDASASARQGQMQGIPAPSQALQEPAPWSALPCGLLLDELLASPEFLQQAQPLLETEAPGELEASEEAASLEAPLSEEEYRALLEEL
# notes: Doxycycline-induced in MB135 cells for co-IP; also called longCTD; iDUX4-CTD
# Tests used:
# [1] = biological target: T1, Cyclin-dependent kinase 4 (Homo sapiens, UniProt P11802 2-303); assay: anti-FLAG co-IP LC-MS, exp 3, +Dox
# T1 construct: also called CDK4
# [2] = biological target: T2, DNA-dependent protein kinase catalytic subunit (Homo sapiens, UniProt P78527 1-4128); assay: anti-FLAG co-IP LC-MS, exp 3, +Dox
# T2 construct: also called PRKDC
# [3] = biological target: T3, Proteasome subunit alpha type (Homo sapiens); assay: anti-FLAG co-IP LC-MS, exp 3, +Dox
# T3 construct: also called PSMA6
# [4] = biological target: T4, cDNA FLJ56329, highly similar to Myosin light polypeptide 6 (Homo sapiens); assay: anti-FLAG co-IP LC-MS, exp 4, +Dox +IFNG
# T4 construct: also called MYL6
# [5] = biological target: T1, Cyclin-dependent kinase 4; assay: anti-FLAG co-IP LC-MS, exp 4, +Dox +IFNG
# [6] = biological target: T5, Nuclease-sensitive element-binding protein 1 (Fragment) (Homo sapiens, UniProt P67809 2-324); assay: anti-FLAG co-IP LC-MS, exp 4, +Dox +IFNG
# T5 construct: also called YBX1
# [7] = biological target: T2, DNA-dependent protein kinase catalytic …; assay: anti-FLAG co-IP LC-MS, exp 4, +Dox +IFNG
# [8] = biological target: T6, Polyadenylate-binding protein 1 (Homo sapiens, UniProt P11940 1-636); assay: anti-FLAG co-IP LC-MS, exp 4, +Dox +IFNG
# T6 construct: also called PABPC1
# [9] = biological target: T7, Uncharacterized protein (Fragment) (Homo sapiens); assay: anti-FLAG co-IP LC-MS, exp 4, +Dox +IFNG
# T7 construct: also called NA (Homology to TAP2)
# Nucleolin = biological target: T8, Nucleolin (Homo sapiens, UniProt P19338 2-710); assay: anti-FLAG co-IP LC-MS, exp 4, +Dox +IFNG
# T8 construct: also called NCL
# [10] = biological target: T9, Signal transducer and activator of transcription 1-alpha/beta (Homo sapiens, UniProt P42224 2-750); assay: anti-FLAG co-IP LC-MS, exp 4, +Dox +IFNG
# T9 construct: also called STAT1
# T9 sequence (looked up): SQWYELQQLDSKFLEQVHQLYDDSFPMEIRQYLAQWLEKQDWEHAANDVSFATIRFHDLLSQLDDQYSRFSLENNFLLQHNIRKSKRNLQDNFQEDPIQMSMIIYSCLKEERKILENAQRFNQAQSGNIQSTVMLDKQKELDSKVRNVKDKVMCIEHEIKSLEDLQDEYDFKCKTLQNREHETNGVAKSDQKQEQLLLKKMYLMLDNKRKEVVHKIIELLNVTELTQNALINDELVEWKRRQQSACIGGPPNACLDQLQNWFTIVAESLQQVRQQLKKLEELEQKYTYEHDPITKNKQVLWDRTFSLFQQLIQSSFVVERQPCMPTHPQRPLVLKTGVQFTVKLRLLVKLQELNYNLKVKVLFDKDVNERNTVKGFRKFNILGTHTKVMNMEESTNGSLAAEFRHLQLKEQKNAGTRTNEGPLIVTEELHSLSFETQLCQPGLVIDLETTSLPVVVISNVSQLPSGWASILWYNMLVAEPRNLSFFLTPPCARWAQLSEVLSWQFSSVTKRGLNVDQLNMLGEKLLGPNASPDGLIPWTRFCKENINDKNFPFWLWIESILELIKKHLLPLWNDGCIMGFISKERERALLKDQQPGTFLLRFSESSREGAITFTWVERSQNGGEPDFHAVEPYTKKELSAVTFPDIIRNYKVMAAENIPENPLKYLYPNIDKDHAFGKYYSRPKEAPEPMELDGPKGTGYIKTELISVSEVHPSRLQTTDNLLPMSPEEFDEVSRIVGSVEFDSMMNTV
# [11] = biological target: T10, Heterogeneous nuclear ribonucleoprotein M (Homo sapiens, UniProt P52272 2-730); assay: anti-FLAG co-IP LC-MS, exp 4, +Dox +IFNG
# T10 construct: also called HNRNPM
# T10 sequence (looked up): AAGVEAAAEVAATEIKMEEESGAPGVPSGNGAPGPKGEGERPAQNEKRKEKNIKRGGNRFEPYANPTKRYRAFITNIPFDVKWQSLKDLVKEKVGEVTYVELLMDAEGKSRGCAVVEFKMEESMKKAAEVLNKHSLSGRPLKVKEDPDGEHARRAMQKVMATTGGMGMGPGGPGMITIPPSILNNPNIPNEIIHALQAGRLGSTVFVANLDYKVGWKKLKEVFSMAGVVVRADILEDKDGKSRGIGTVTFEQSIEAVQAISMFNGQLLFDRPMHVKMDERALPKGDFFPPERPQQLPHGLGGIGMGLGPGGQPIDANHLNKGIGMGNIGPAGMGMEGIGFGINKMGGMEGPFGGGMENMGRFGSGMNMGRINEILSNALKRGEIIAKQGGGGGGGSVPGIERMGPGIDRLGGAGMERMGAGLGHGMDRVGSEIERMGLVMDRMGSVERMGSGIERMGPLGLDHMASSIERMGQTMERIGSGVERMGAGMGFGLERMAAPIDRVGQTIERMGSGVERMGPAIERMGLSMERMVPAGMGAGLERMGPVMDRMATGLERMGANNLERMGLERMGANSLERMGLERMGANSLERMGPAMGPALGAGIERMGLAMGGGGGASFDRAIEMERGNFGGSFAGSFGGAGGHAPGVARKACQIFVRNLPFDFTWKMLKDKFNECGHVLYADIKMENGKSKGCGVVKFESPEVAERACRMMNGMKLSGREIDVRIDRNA
# [12] = biological target: T11, Immunoglobulin kappa variable 2-40 (Homo sapiens); assay: anti-FLAG co-IP LC-MS, exp 4, +Dox +IFNG
# T11 construct: also called IGKV2-40
# T1 sequence (P11802 2-303 limits assumed): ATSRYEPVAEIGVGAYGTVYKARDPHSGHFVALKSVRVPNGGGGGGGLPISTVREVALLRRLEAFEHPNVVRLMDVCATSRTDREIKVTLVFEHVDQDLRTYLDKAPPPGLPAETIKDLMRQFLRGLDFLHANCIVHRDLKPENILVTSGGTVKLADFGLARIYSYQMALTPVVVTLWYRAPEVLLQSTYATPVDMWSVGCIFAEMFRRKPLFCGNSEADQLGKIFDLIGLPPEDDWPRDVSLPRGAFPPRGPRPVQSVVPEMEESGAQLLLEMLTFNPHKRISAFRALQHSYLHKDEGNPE
# T2 sequence (P78527 whole entry): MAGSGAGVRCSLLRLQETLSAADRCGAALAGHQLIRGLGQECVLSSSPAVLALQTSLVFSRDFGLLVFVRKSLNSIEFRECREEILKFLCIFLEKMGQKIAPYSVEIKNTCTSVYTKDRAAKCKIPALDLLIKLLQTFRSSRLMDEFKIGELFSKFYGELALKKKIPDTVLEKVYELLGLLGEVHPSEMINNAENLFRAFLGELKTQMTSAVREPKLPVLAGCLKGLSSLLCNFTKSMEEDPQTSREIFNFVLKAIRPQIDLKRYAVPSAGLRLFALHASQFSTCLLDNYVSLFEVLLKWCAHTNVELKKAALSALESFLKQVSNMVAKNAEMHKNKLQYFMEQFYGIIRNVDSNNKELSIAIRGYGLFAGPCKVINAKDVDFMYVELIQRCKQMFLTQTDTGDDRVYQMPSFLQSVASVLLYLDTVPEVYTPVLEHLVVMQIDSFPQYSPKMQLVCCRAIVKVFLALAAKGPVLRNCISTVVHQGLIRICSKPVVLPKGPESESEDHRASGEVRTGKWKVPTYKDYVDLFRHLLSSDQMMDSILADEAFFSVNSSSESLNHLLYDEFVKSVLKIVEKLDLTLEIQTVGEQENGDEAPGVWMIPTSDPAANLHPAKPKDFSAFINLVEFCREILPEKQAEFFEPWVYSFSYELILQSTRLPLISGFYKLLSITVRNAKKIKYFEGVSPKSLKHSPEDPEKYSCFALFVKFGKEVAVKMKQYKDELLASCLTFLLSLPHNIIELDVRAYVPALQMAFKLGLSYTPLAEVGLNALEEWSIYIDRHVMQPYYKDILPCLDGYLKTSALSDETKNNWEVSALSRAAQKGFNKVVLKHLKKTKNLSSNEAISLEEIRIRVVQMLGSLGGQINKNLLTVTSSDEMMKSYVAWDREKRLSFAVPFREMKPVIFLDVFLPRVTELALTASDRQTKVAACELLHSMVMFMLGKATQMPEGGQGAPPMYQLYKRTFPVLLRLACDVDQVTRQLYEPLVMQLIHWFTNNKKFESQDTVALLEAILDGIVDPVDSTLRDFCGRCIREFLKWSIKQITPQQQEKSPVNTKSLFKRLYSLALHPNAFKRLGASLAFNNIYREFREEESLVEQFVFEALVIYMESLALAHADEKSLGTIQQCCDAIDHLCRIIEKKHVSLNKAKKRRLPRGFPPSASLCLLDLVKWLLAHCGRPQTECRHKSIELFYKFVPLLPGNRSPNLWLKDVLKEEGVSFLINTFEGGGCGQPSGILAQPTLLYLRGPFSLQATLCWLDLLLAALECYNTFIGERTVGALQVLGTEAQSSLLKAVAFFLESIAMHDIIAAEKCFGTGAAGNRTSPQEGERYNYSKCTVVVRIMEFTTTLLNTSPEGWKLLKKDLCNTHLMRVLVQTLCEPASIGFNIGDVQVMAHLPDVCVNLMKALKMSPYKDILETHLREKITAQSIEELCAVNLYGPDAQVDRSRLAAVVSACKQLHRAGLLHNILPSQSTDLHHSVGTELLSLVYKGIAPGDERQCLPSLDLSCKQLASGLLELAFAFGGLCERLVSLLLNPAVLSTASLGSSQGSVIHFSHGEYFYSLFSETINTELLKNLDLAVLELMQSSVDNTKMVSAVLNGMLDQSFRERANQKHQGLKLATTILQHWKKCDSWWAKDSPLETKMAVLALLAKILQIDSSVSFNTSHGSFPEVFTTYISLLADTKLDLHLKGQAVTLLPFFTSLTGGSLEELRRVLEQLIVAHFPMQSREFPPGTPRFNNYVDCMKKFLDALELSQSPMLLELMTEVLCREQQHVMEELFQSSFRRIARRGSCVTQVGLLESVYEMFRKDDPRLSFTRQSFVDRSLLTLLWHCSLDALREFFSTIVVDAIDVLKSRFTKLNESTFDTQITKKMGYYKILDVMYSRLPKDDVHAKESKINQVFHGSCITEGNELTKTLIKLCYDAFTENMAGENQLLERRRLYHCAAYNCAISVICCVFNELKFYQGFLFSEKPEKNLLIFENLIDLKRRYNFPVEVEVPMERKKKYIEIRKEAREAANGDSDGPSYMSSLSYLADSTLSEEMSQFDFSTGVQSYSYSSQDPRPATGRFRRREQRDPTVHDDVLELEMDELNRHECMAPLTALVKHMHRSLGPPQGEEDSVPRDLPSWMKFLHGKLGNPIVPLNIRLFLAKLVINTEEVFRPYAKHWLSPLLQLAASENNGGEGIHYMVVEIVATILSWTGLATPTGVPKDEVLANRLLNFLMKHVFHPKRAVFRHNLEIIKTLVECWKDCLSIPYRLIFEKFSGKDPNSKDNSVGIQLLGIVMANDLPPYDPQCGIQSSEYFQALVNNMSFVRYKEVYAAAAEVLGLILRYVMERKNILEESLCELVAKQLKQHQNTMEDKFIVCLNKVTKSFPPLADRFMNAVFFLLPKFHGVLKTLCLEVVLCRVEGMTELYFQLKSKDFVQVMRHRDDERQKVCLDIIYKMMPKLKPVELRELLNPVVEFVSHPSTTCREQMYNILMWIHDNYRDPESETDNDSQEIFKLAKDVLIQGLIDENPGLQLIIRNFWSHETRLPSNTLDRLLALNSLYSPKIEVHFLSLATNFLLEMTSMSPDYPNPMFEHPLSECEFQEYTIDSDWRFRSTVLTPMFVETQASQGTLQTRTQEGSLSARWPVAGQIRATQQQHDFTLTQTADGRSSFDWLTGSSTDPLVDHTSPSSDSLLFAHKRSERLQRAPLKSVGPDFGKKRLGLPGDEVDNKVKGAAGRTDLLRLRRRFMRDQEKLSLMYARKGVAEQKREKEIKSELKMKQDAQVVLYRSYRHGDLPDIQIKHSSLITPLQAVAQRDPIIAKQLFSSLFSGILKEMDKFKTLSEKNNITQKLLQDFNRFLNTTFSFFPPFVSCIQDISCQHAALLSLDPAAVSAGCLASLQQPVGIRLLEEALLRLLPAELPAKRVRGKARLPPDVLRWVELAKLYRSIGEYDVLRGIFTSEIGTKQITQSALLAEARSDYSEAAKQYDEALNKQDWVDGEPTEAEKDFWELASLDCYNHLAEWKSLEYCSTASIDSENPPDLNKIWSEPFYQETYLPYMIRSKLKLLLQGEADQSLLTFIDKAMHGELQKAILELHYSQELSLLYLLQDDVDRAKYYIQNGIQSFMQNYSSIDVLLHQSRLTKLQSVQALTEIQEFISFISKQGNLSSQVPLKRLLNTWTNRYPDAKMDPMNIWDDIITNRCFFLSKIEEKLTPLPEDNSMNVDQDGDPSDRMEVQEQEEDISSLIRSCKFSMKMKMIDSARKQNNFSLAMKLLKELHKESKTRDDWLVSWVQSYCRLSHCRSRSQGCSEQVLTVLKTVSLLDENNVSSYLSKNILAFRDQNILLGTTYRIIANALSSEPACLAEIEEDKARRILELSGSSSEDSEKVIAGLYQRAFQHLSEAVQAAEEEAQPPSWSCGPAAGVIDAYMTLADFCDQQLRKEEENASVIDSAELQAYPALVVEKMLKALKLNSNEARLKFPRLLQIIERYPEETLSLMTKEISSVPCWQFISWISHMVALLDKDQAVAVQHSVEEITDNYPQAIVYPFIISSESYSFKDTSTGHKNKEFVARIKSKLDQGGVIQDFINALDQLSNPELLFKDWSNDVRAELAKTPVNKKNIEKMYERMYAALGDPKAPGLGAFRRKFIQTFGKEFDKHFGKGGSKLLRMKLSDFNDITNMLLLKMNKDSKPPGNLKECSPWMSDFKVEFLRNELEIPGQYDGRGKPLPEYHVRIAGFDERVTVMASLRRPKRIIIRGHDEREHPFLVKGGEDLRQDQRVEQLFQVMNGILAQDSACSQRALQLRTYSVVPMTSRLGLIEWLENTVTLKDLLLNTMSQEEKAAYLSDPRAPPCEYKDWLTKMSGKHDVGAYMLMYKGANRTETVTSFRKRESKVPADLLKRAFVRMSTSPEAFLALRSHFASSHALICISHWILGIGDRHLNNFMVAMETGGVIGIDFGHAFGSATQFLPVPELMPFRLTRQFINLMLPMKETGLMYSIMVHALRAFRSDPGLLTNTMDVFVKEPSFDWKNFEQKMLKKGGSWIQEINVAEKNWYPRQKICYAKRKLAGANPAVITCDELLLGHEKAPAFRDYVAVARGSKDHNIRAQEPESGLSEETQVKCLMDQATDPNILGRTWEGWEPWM
# T6 sequence (P11940 whole entry): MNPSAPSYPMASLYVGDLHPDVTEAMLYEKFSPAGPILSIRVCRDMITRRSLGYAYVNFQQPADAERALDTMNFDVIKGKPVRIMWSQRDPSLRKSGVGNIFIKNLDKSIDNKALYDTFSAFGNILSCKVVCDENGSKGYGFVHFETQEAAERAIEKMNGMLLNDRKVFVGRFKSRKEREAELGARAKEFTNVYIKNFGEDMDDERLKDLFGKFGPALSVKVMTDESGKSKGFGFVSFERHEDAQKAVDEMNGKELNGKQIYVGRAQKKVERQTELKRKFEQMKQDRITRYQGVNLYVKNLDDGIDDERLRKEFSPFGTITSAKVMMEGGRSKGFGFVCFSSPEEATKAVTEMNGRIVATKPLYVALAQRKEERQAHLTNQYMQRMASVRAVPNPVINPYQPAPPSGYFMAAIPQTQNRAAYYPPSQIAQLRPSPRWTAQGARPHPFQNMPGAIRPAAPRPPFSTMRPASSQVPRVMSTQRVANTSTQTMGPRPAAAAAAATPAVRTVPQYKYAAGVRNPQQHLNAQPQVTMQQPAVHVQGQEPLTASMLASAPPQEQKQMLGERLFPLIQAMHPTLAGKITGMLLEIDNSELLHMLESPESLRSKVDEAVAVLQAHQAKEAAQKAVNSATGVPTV
binder,measurement,setting,value
B1,PSMs,[1],1 PSMs
same,PSMs,[2],3 PSMs
same,PSMs,[3],1 PSMs
same,PSMs,[4],5 PSMs
same,PSMs,[5],11 PSMs
same,PSMs,[6],7 PSMs
same,PSMs,[7],2 PSMs
same,PSMs,[8],3 PSMs
same,PSMs,[9],1 PSMs
same,PSMs,Nucleolin,1 PSMs
same,PSMs,[10],19 PSMs
same,PSMs,[11],2 PSMs
same,PSMs,[12],5 PSMs
